Source: the Human Domainome abundance scans (Beltran et al. 2025)
± gives the uncertainty stated by the source.

B1: Zinc finger MYM-type protein 3, residues 589 to 668; numbered along this chain, Q14202 (parent)
chain: LSCHYCHSLFSGKPEVLDWQDQVFQFCCRDCCEDFKRLRGVVSQCEHCRQEKLLHEKLRFSGVEKSFCSEGCVLLYKQDF

Variants of: B1
Assay: abundance fitness (aPCA) (normalised: wild type 0, dead -1); higher = more abundant; growth selection in yeast, the domain comes from the species named
Settings: Homo sapiens

Variant	abundance fitness
LSCHYCHSLFSGKPEVLDWQDQVFQFCCRDCCEDFKRLRGVVSQCEHCRQEKLLTEKLRFSGVEKSFCSEGCVLLYKQDF	0.431 ± 0.09
LSCHYCHSLFSGKPEVLDWQDQVFQFCCRDCCEDFKRLRGVVSQCEHCRQEKLLFEKLRFSGVEKSFCSEGCVLLYKQDF	0.109 ± 0.12
LSCHYCHSLFSGKPEVLDWQDQVFQFCCRDCCEDFKRLRGVVSQCEHCRQEKLLAEKLRFSGVEKSFCSEGCVLLYKQDF	-0.286 ± 0.14
LSCHYCHSLFSGKPEVLDWQDQVFQFCCRDCCEDFKRLRGVVSQCEHCRQEKLLNEKLRFSGVEKSFCSEGCVLLYKQDF	0.027 ± 0.24
LSCHYCHSLFSGKPEVLDWQDQVFQFCCRDCCEDFKRLRGVVSQCEHCRQEKLLKEKLRFSGVEKSFCSEGCVLLYKQDF	-0.04 ± 0.17
LSCHYCHSLFSGKPEVLDWQDQVFQFCCRDCCEDFKRLRGVVSQCEHCRQEKLLEEKLRFSGVEKSFCSEGCVLLYKQDF	-0.392 ± 0.14
LSCHYCHSLFSGKPEVLDWQDQVFQFCCRDCCEDFKRLRGVVSQCEHCRQEKLLCEKLRFSGVEKSFCSEGCVLLYKQDF	-0.053 ± 0.14
LSCHYCHSLFSGKPEVLDWQDQVFQFCCRDCCEDFKRLRGVVSQCEHCRQEKLLDEKLRFSGVEKSFCSEGCVLLYKQDF	0.35 ± 0.49
LSCHYCHSLFSGKPEVLDWQDQVFQFCCRDCCEDFKRLRGVVSQCEHCRQEKLLGEKLRFSGVEKSFCSEGCVLLYKQDF	-0.126 ± 0.096
LSCHYCHSLFSGKPEVLDWQDQVFQFCCRDCCEDFKRLRGVVSQCEHCRQEKLLIEKLRFSGVEKSFCSEGCVLLYKQDF	0.199 ± 0.35
LSCHYCHSLFSGKPEVLDWQDQVFQFCCRDCCEDFKRLRGVVSQCEHCRQEKLLREKLRFSGVEKSFCSEGCVLLYKQDF	0.057 ± 0.09
LSCHYCHSLFSGKPEVLDWQDQVFQFCCRDCCEDFKRLRGVVSQCEHCRQEKLLQEKLRFSGVEKSFCSEGCVLLYKQDF	-0.516 ± 0.39
LSCHYCHSLFSGKPEVLDWQDQVFQFCCRDCCEDFKRLRGVVSQCEHCRQEKLLPEKLRFSGVEKSFCSEGCVLLYKQDF	0.106 ± 0.19
LSCHYCHSLFSGKPEVLDWQDQVFQFCCRDCCEDFKRLRGVVSQCEHCRQEKTLHEKLRFSGVEKSFCSEGCVLLYKQDF	-0.196 ± 0.27
LSCHYCHSLFSGKPEVLDWQDQVFQFCCRDCCEDFKRLRGVVSQCEHCRQEKKLHEKLRFSGVEKSFCSEGCVLLYKQDF	0.187 ± 0.34
LSCHYCHSLFSGKPEVLDWQDQVFQFCCRDCCEDFKRLRGVVSQCEHCRQEKQLHEKLRFSGVEKSFCSEGCVLLYKQDF	-0.255 ± 0.22
LSCHYCHSLFSGKPEVLDWQDQVFQFCCRDCCEDFKRLRGVVSQCEHCRQEKWLHEKLRFSGVEKSFCSEGCVLLYKQDF	-0.676 ± 0.14
LSCHYCHSLFSGKPEVLDWQDQVFQFCCRDCCEDFKRLRGVVSQCEHCRQEKPLHEKLRFSGVEKSFCSEGCVLLYKQDF	-0.091 ± 0.22

Variant	abundance fitness
LSCHYCHSLFSGKPEVLDWQDQVFQFCCRDCCEDFKRLRGVVSQCEHCRQEKRLHEKLRFSGVEKSFCSEGCVLLYKQDF	-0.327 ± 0.11
LSCHYCHSLFSGKPEVLDWQDQVFQFCCRDCCEDFKRLRGVVSQCEHCRQEKVLHEKLRFSGVEKSFCSEGCVLLYKQDF	-0.056 ± 0.092
LSCHYCHSLFSGKPEVLDWQDQVFQFCCRDCCEDFKRLRGVVSQCEHCRQEKGLHEKLRFSGVEKSFCSEGCVLLYKQDF	-0.445 ± 0.089
LSCHYCHSLFSGKPEVLDWQDQVFQFCCRDCCEDFKRLRGVVSQCEHCRQEKSLHEKLRFSGVEKSFCSEGCVLLYKQDF	-0.154 ± 0.13
LSCHYCHSLFSGKPEVLDWQDQVFQFCCRDCCEDFKRLRGVVSQCEHCRQEKMLHEKLRFSGVEKSFCSEGCVLLYKQDF	-0.234 ± 0.23
LSCHYCHSLFSGKPEVLDWQDQVFQFCCRDCCEDFKRLRGVVSQCEHCRQEKNLHEKLRFSGVEKSFCSEGCVLLYKQDF	-0.163 ± 0.45
LSCHYCHSLFSGKPEVLDWQDQVFQFCCRDCCEDFKRLRGVVSQCEHCRQEKELHEKLRFSGVEKSFCSEGCVLLYKQDF	0.064 ± 0.14
LSCHYCHSLFSGKPEVLDWQDQVFQFCCRDCCEDFKRLRGVVSQCEHCRQEKLIHEKLRFSGVEKSFCSEGCVLLYKQDF	0.201 ± 0.23
LSCHYCHSLFSGKPEVLDWQDQVFQFCCRDCCEDFKRLRGVVSQCEHCRQEKLGHEKLRFSGVEKSFCSEGCVLLYKQDF	-0.536 ± 0.095
LSCHYCHSLFSGKPEVLDWQDQVFQFCCRDCCEDFKRLRGVVSQCEHCRQEKLEHEKLRFSGVEKSFCSEGCVLLYKQDF	-0.866 ± 0.44
LSCHYCHSLFSGKPEVLDWQDQVFQFCCRDCCEDFKRLRGVVSQCEHCRQEKLHHEKLRFSGVEKSFCSEGCVLLYKQDF	-0.503 ± 0.41
LSCHYCHSLFSGKPEVLDWQDQVFQFCCRDCCEDFKRLRGVVSQCEHCRQEKLSHEKLRFSGVEKSFCSEGCVLLYKQDF	-0.542 ± 0.16
LSCHYCHSLFSGKPEVLDWQDQVFQFCCRDCCEDFKRLRGVVSQCEHCRQEKLAHEKLRFSGVEKSFCSEGCVLLYKQDF	-0.41 ± 0.16
LSCHYCHSLFSGKPEVLDWQDQVFQFCCRDCCEDFKRLRGVVSQCEHCRQEKLRHEKLRFSGVEKSFCSEGCVLLYKQDF	-0.664 ± 0.14
LSCHYCHSLFSGKPEVLDWQDQVFQFCCRDCCEDFKRLRGVVSQCEHCRQEKLTHEKLRFSGVEKSFCSEGCVLLYKQDF	-0.226 ± 0.45
LSCHYCHSLFSGKPEVLDWQDQVFQFCCRDCCEDFKRLRGVVSQCEHCRQEKLDHEKLRFSGVEKSFCSEGCVLLYKQDF	-0.589 ± 0.3
LSCHYCHSLFSGKPEVLDWQDQVFQFCCRDCCEDFKRLRGVVSQCEHCRQEKLVHEKLRFSGVEKSFCSEGCVLLYKQDF	-0.046 ± 0.091
